The source of these data is the Immune Epitope Database (IEDB).

Some results are limits rather than exact numbers.

Assay [1] deals with HLA-A*24:03. Briefly: IEDB peptide-MHC binding, purified MHC/direct/fluorescence; filed as Kd, often an IC50 or EC50 that approximates it; ≥ and ≤ were set here for values at or beyond the usual limits of such assays.
The target of assay [2] is HLA-A*23:01. The description is as above.
The target in assay [3] is HLA-A*01:01. The assay is described as above.
The target in assay [4] is HLA-B*46:01. The assay is described as above. Conditions: source organism: West Nile virus.
The target in assay [5] is HLA-B*58:01. The description is as above. Conditions: source organism: West Nile virus.
Assay [6] deals with HLA-B*48:01. The description is as above. The settings on record: source organism: West Nile virus.
For assay [7], the target named is HLA-B*44:02. Described as above. Conditions: source organism: West Nile virus.
For assay [8], the target named is HLA-A*31:01. Described as above. The settings on record: source organism: West Nile virus.
Assay [9] has as its target HLA-B*18:01. The assay is described as above. The settings on record: source organism: West Nile virus.
Assay [10] has as its target HLA-A*69:01. The assay is described as above. The settings on record: source organism: West Nile virus.
Assay [11] has as its target HLA-B*57:01. Described as above. The settings on record: source organism: West Nile virus.
Assay [12] concerns the target HLA-A*80:01. The description is as above.
Assay [13] has as its target HLA-B*27:05. The assay is described as above. The settings on record: source organism: West Nile virus.
Assay [14] has as its target HLA-B*40:01. The description is as above. Conditions: source organism: West Nile virus.
The target in assay [15] is HLA-A*29:02. The assay is described as above. Conditions: source organism: West Nile virus.
The target in assay [16] is HLA-A*02:03. The assay is described as above. Conditions: source organism: Bacillus cereus 03BB108.
For assay [17], the target named is HLA-A*11:01. The assay is described as above. The settings on record: source organism: Bacillus cereus 03BB108.
In assay [18] the target is HLA-A*03:01. The description is as above. Conditions: source organism: Bacillus cereus 03BB108.
In assay [19] the target is HLA-A*02:19. The assay is described as above. The settings on record: source organism: Bacillus cereus 03BB108.
The target of assay [20] is HLA-A*68:02. The assay is described as above. Conditions: source organism: Bacillus cereus 03BB108.
The target of assay [21] is HLA-A*02:11. The assay is described as above. Conditions: source organism: Bacillus cereus 03BB108.
Assay [22] addresses HLA-A*02:12. The description is as above. Conditions: source organism: Bacillus cereus 03BB108.
Assay [23] deals with HLA-A*02:16. The description is as above. The settings on record: source organism: Bacillus cereus 03BB108.
Assay [24] concerns the target HLA-B*46:01. Briefly: IEDB peptide-MHC binding, purified MHC/competitive/fluorescence; filed as Kd, often an IC50 or EC50 that approximates it; ≥ and ≤ were set here for values at or beyond the usual limits of such assays.
The target in assay [25] is HLA-B*51:01. Described as above.
In assay [26] the target is HLA-B*15:17. The assay is described as above.
The target in assay [27] is HLA-B*18:01. The description is as above.
Assay [28] deals with HLA-B*39:01. The description is as above.
In assay [29] the target is HLA-A*69:01. Described as above.
The target in assay [30] is HLA-B*57:01. The assay is described as above.
For assay [31], the target named is HLA-B*27:03. The description is as above.
Assay [32] has as its target HLA-A*26:01. Described as above.
The target of assay [33] is HLA-A*02:01. The description is as above.
The target in assay [34] is HLA-A*02:03. Described as above. Conditions: source organism: Cryptosporidium parvum Iowa II.
For assay [35], the target named is HLA-A*24:03. The assay is described as above. The settings on record: source organism: Cryptosporidium parvum Iowa II.
Assay [36] deals with HLA-B*15:01. Described as above. The settings on record: source organism: Cryptosporidium parvum Iowa II.
Assay [37] deals with HLA-A*03:01. The assay is described as above. Conditions: source organism: Cryptosporidium parvum Iowa II.
Assay [38] deals with HLA-A*02:19. The assay is described as above. Conditions: source organism: Cryptosporidium parvum Iowa II.
Assay [39] concerns the target HLA-A*68:02. The assay is described as above. The settings on record: source organism: Cryptosporidium parvum Iowa II.
Assay [40] deals with HLA-A*02:11. Described as above. Conditions: source organism: Cryptosporidium parvum Iowa II.
Assay [41] deals with HLA-A*02:12. Described as above. Conditions: source organism: Cryptosporidium parvum Iowa II.
For assay [42], the target named is HLA-A*29:02. The assay is described as above. Conditions: source organism: Cryptosporidium parvum Iowa II.
Assay [43] concerns the target HLA-A*02:16. The assay is described as above. Conditions: source organism: Cryptosporidium parvum Iowa II.
[44] abbreviates: source organism: Burkholderia mallei ATCC 23344.
[45] abbreviates: source organism: West Nile virus.
Setting [46] is: source organism: Bacillus anthracis.
[47] abbreviates: source organism: Orthohantavirus andesense.
The mark [48] stands for this setting: source organism: Bacillus cereus 03BB108.
[49] abbreviates: source organism: Bacillus anthracis str. A0488.
Where [50] appears, read: source organism: Cryptosporidium parvum Iowa II.

One may read the Kd as the concentration at which binding is half-saturated. A high value points to a looser complex. For CYRGVRHRK, the equilibrium dissociation constant (Kd) in assay [1] (setting [44]) amounted to 1.39 µM; in [2] (setting [44]), 0.41 µM.

Consider MLRKKQITV, for which the dissociation constant (Kd) in [3] (setting [45]), in [4], in [5], in assay [6], in [7] and in [8] was at least 20 µM throughout. In addition, the dissociation constant Kd in assay [9], in [10], in assay [11], in assay [12] (setting [45]), in assay [13] and in assay [14] was at least 20 µM throughout. Besides, in [15], the Kd is at least 20 µM.

In the case of SVHYKFVTK, the Kd in assay [3] (setting [46]) and in [12] (setting [46]) was at least 20 µM in each case.

With HSDDALFIY, the Kd in assay [3] (setting [47]) was at least 20 µM; in assay [12] (setting [47]), 16 µM.

Turning to SYMLQGLRK, the Kd is at least 20 µM in [16]; at least 20 µM in [1] (setting [48]); 0.228 µM in assay [17]; at least 20 µM in [18]; at least 20 µM in assay [2] (setting [48]); at least 20 µM in assay [19]. Further, the Kd in assay [20], in assay [21], in assay [22], in assay [23], in assay [24] (setting [49]) and in assay [25] (setting [49]) was at least 20 µM in each case. The dissociation constant (Kd) in [26] (setting [49]), in [27] (setting [49]), in assay [28] (setting [49]), in assay [29] (setting [49]), in [30] (setting [49]) and in [31] (setting [49]) was at least 20 µM in each case. The dissociation constant (Kd) in assay [32] (setting [49]) and in [33] (setting [49]) was at least 20 µM each time.

For the sequence VLRACWNEK, the Kd in assay [3] (setting [46]) and in [12] (setting [46]) was at least 20 µM in each case.

Consider KLYLRPWWH, for which the dissociation constant Kd in [24] (setting [50]), in assay [34], in assay [35], in assay [36], in assay [25] (setting [50]) and in [26] (setting [50]) was at least 20 µM each time. Also, the Kd in [37] is 0.0044 µM; in [27] (setting [50]), at least 20 µM; in assay [28] (setting [50]), at least 20 µM; in [29] (setting [50]) it was at least 20 µM; in [30] (setting [50]), at least 20 µM; in assay [31] (setting [50]) it was at least 20 µM. Further, the Kd in assay [38], in assay [39], in assay [40], in [32] (setting [50]), in [41] and in assay [33] (setting [50]) was at least 20 µM each time. For the same sequence, the Kd was 0.683 µM in [42] and at least 20 µM in assay [43].
